Publication PMC4077619, “Split luciferase complementation assay to detect regulated protein-protein interactions in rice protoplasts in a large-scale format” (Rice, 2014)

Target: T1, CRLuc-H2B (Arabidopsis HISTONE 2B fused to the C-terminal fragment of Renilla luciferase) (Arabidopsis, UniProt Q9FFC0 1-145)
T1 construct: Arabidopsis HISTONE 2B (H2B), locus AT5G22880; cDNA inserted in a pDuEx vector; source: rice protoplasts, transformed (PEG) with a pDuEx vector (35S promoter), in cells
Test: split reporter (BiFC, NanoBiT); split Renilla luciferase complementation in living rice protoplasts, 96-well plate, W5 buffer, ViviRen substrate, RLU read 16 h after transformation; no hormone added (before the hormone or with W5 buffer only); H2A-H2B also tested with GA3 (Figure S1), RLU not increased
Details: partners not purified

T1 sequence (Q9FFC0 whole entry, the tested form may be a part): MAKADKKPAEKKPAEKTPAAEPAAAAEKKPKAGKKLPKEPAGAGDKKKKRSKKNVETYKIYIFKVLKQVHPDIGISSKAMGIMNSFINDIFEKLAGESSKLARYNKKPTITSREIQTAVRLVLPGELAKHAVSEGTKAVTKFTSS

B1: NRLuc-H2A (Arabidopsis HISTONE 2A fused to the N-terminal fragment of Renilla luciferase) (natural protein)
chain: not shown
notes: Arabidopsis HISTONE 2A (H2A), locus AT4G27230; cDNA inserted in a pDuEx vector; source: rice protoplasts, transformed (PEG) with a pDuEx vector (35S promoter), in cells
  fold RLU over a non-interaction protein pair: 10 fold
  fold RLU over mock transformed protoplasts: 21 fold
